How the values were obtained:
[1] = target: p217+ tau in pooled CSF from AD subjects (human tau protein or tau fragments phosphorylated at T217 and/or T212) (human) (UniProt P10636); assay: Simoa sandwich ELISA, pT3 capture; pooled AD CSF at 1:64 dilution
[2] = target: p217+ tau in pooled CSF from AD subjects (human tau protein or tau fragments phosphorylated at T217 and/or T212) (human) (UniProt P10636); assay: Simoa sandwich ELISA, pT3 capture; pooled AD CSF at 1:4 dilution
[3] = target: p217+ tau in pooled CSF from AD subjects (human tau protein or tau fragments phosphorylated at T217 and/or T212) (human) (UniProt P10636); assay: Simoa sandwich ELISA, pT3 capture; pooled AD CSF at 1:8 dilution
[4] = target: p217+ tau in pooled CSF from AD subjects (human tau protein or tau fragments phosphorylated at T217 and/or T212) (human) (UniProt P10636); assay: Simoa sandwich ELISA, pT3 capture; pooled AD CSF at 1:16 dilution
[5] = target: p217+ tau in pooled CSF from AD subjects (human tau protein or tau fragments phosphorylated at T217 and/or T212) (human) (UniProt P10636); assay: Simoa sandwich ELISA, pT3 capture; pooled AD CSF at 1:2 dilution
[6] = target: p217+ tau in pooled CSF from AD subjects (human tau protein or tau fragments phosphorylated at T217 and/or T212) (human) (UniProt P10636); assay: Simoa sandwich ELISA, pT3 capture; pooled AD CSF at 1:32 dilution

p217+ tau in pooled CSF from AD subjects (human tau protein or tau fragments phosphorylated at T217 and/or T212) (human), sequence (P10636 other isoform, or with tags, fused parts or gaps limits assumed): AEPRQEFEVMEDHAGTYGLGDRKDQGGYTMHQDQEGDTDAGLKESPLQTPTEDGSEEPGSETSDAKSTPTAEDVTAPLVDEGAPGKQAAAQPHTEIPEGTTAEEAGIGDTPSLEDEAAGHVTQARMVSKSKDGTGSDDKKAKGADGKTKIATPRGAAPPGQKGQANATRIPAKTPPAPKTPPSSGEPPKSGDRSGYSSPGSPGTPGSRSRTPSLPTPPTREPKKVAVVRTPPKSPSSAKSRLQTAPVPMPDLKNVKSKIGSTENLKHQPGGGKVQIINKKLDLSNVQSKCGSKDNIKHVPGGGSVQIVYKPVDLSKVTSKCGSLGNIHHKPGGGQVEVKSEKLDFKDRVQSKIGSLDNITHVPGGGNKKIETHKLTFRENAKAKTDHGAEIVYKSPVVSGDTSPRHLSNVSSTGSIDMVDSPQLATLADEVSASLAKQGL

S/N (Signal/Noise) [1]: 19 | S/N (Signal/Noise) [2]: 262 | S/N (Signal/Noise) [3]: 147 | S/N (Signal/Noise) [4]: 75 | S/N (Signal/Noise) [5]: 525 | S/N (Signal/Noise) [6]: 35
Substance: Quanterix tau 2.0 assay detector (antibody)
